# US20130189725A1, “HUMAN IN VITRO MODEL OF THE BLOOD CER[…] BARRIER” (RUPRECHT-KARLS-UNIVERSITAT HEIDELBERG, priority 2010, published 2013)
# Tested on: HIBCPP monolayers
# Assay: Paracellular permeability: FITC-inulin flux through HIBCPP layers on transwell filters
# Assay type: in vitro ADME, human
# Details: standard and inverted transwell filter system
# Procedure: HIBCPP were cultured in a 1:1 mixture of DMEM medium and HAM's F12 medium, supplemented with 4 mM L-Glutamine, 5 μg/ml insulin, penicillin (100 U/ml) and streptomycin (100 μg/ml), and 15% (v/v) heat inactivated fetal calf serum (FCS) [HIBCPP-medium with 15% (v/v) FCS]. Since HIBCPP have been described to change doubling time with increasing passages, only cells between passage 33 and 37 were used. For filter-based assays, the amounts of cells indicated in the respective experiments were seeded on the filter membrane of transwell filters (pore diameter 3.0 μm, pore density 2.0×10^6 pores per cm^2, 0.33 cm^2; Greiner Bio-one, Frickenhausen, Germany). For the standard transwell filter system, cells were seeded into the upper well of the transwell filter. Subsequently, cells were washed once each of the following two days. Medium was added to the lower well not before day two after seeding. […]
# Paracellular permeability of HIBCPP monolayers was determined by measuring the passage of a FITC-inulin (Sigma, Deisenhofen, Germany) tracer solution (100 μg/ml) from the apical to the basolateral compartment of transwell filters carrying the monolayers in a Tecan Infinite M200 Multiwell reader (Tecan, Switzerland) employing Magellan V6.6 software.
substance,measurement,setting,value
FITC-inulin,permeability for FITC-inulin,"after day 0, simultaneously with development of a high TEER, 15%, 1% or no serum",below 1%
same,FITC-inulin flux,"up to day 0 when TEER values are still low, tracer 100 μg/ml",≥ 3%
